The results in this text go back to patent publication KR20230139570A (dated 2023).

For assay [1], the target named is CD47 on CD47-overexpressing breast cancer cell line MCF-7 (UniProt Q08722). As to the kind of experiment: flow cytometry on MCF-7 cells, secondary antibody alone (background control).
Assay [2] deals with CD47 단백질 (Acrobiosystems, cat# CD7-HA2E9) (UniProt Q08722). As to the kind of experiment: ELISA, CD47 protein coated, negative control. In general terms: ELISA stands for enzyme-linked immunosorbent assay.
Assay [3] has the same target. Kind of assay: ELISA, CD47 protein coated, same method as Example 2-1.
In assay [4] the target is 인간 CD47 단백질 (Human CD47, SPR analyte) (human, UniProt Q08722 19-139, limits assumed). As to the kind of experiment: SPR, Biacore 8K, antibody captured, human CD47 as analyte.

Substitutions are numbered along the chain they refer to.

Sequence of 인간 CD47 단백질 (Human CD47, SPR analyte) (Q08722 19-139 limits assumed): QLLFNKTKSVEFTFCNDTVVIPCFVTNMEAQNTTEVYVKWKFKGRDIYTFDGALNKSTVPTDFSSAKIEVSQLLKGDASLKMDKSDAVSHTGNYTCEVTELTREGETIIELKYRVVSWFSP

In assay [1], “PE-conjugated goat anti-mouse IgG (Biolegend Inc., cat# 405307) (antibody)” returned a Mean (fluorescence) of 80 and a Median (fluorescence) of 73.9.
As to “음성대조군 (negative control of the Hu3A5V10 ELISA)”, in assay [2], the OD450 came to 0.0431 OD450.

B1: Hu3A5V10 항체 (humanized 3A5 antibody, as tested in Example 4) (antibody, V domains shown)
VH: EVQLVQSGSELKKPGASVKVSCKASGYTFTSYWMHWMRQAPGQGLEWIGVIDPSDSYTSYNQGFTGRFVLSVDTSVSTAYLQISSLKAEDTAVYYCARGGKRAMDYWGQGTTVTVSS
VL: DVVMTQSPLSLPVTLGQPASISCRSSQSLVHSNGNTYLHWFQQRPGQSPRLLIYKVSNRFSGVPDRFSGSGSGTDFTLKISRVEAEDVGVYYCSQSTHVPFTFGGGTKLEIK
As to B1, the OD450 in assay [3] is 2.81 OD450.

B2: AHF16310 전장 항체 (full length antibody, IgG4) (antibody, V domains shown)
VH: B1 VH with S54N, A103M
VL: DVVMTQSPLSLPVTLGQPASISCRSSQSLVHSNGNTYLHWFQQRPGQSPRLLIYKVSNRFTGVPDRFSGSGSGTDFTLKISRVEAEDVGVYYCSQSTHVPFTFGGGTKLEIKR
notes: also called AHF16310 항체
In the case of B2, in assay [4], the Kd is 0.208 nM, the koff was found to be 0.000458 s⁻¹ and the kon came to 2.21e+06 M⁻¹ s⁻¹.

B3: AHF16309 전장 항체 (full length antibody, IgG4) (antibody, V domains shown)
VH: B1 VH with S54N, A103M
VL: B2 VL with H39N, T61P
notes: also called AHF16309 항체
In assay [4], B3 showed a Kd of 0.312 nM, a koff of 0.000865 s⁻¹ and a kon of 2.78e+06 M⁻¹ s⁻¹.

B4: Hu3A5V10 전장 항체 (full length antibody, IgG4) (antibody, V domains shown)
VH: B1 VH
VL: B2 VL with T61S
notes: also called U822EGG010-Hu3A5V10
In assay [4], B4 had a Kd of 0.465 nM, an off-rate constant (koff) of 0.000467 s⁻¹ and a kon of 1e+06 M⁻¹ s⁻¹.

B5: AHF16312 전장 항체 (full length antibody, IgG4) (antibody, V domains shown)
VH: B1 VH with S54N, A103I
VL: B2 VL with H39N
notes: also called AHF16312 항체
Consider B5, for which, in assay [4], binding was characterised by a dissociation constant (Kd) of 0.166 nM, the koff stood at 0.000307 s⁻¹ and the kon came out at 1.85e+06 M⁻¹ s⁻¹.

As usually defined, the Kd is the free concentration of one partner at which half of the binding sites on the other are occupied at equilibrium, for simple one-to-one binding. Usually koff stands for the first-order rate constant of dissociation. A lower koff goes with slow dissociation. Broadly, the kon is the second-order rate constant of association. Lower therefore signals slower complex formation.
